Laboratory results reported in the DeepSol protein solubility set.

Test: soluble on expression in E. coli; label from the status in PepcDB or PDB records

Sequence | soluble on expression in E. coli
MSLARTLVIGNKNYSSWSMRPWIALKATGVAFDEVVIPLYTGDADKRRILAFTPAGKVPVLVDGDVTIWDSLAIIEYAAERFPKAQLWPDDVAARAHARSVAAEMHSGFAALRNECGMNIHRPVGAKQLSDAARADIARVQEIWIDCRHRYGRFGPYLFGRFSGVDAMFAPVVHRFRTYAVELDPIAQGYVEVMMALPAFQEWTQAALAETWVIDKFETEGHHHHHH | soluble
MSLARTRILIVDDEDSIRFGMRDFLESRGYGVVDADSCQRARELFQASPPDVAVIDYRLHDGSAIDLLRDFRQIDADVPMIVLTAYGSIDLAVQAVKEGAEQFLTKPIEMPALHVILKRLLATRRLQRQQQVVATRDRRERVNPLSGGSPAIRDLAEQASKVMHTDSPILILGETGTGKSLLAKWLHHHGMRADEAFVDLNCAGLSPDFLETELFGHEKGAFTGATASKQGMLEIADGGTVFLDEIGDVDPRVQPKLLKVLEEKRFRRLGAVREREVDIRLIAATHHDLASKVKEGTFRSDLYFRISSIPLTMPALRDRKEDIVPLARTLLARSLADPSRTPQLTDDAALALREYAWPGNIREGHHHHHH | not soluble
MSLASLIGLAVCTGNAFSPALAAEAKQPNLVIIMADDLGYGDLATYGHQIVKTPNIDRLAQEGVKFTDYYAPAPLSSPSRAGLLTGRMPFRTGIRSWIPSGKDVALGRNELTIANLLKAQGYDTAMMGKLHLNAGGDRTDQPQAQDMGFDYSLANTAGFVTDATLDNAKERPRYGMVYPTGWLRNGQPTPRADKMSGEYVSSEVVNWLDNKKDSKPFFLYVAFTEVHSPLASPKKYLDMYSQYMSAYQKQHPDLFYGDWADKPWRGVGEYYANISYLDAQVGKVLDKIKAMGEEDNTIVIFTSDNGPVTREARKVYELNLAGETDGLRGRKDNLWEGGIRVPAIIKYGKHLPQGMVSDTPVYGLDWMPTLAKMMNFKLPTDRTFDGESLVPVLEQKALKREKPLIFGIDMPFQDDPTDEWAIRDGDWKMIIDRNNKPKYLYNLKSDRYETLNLIGKKPDIEKQMYGKFLKYKTDIDNEGHHHHHH | not soluble
MSLASVIADVPGMKTIVQVLTFRDYQYDDGWHQANIEVPAISGLEESGLGQALNQKYLEENKKLYEDFMADVEEMKALGDGHMGVDSGYEIKTDNERLLAIGRYVVNTVGSSSTVFKYDTIDKVDQVLITLPSLFKDDSYVQVISDYIVNEMKAKMKADSNLIYWVVTDENKDEVNYFEPFTQIKPEQSFYINSDYKLVISFDKYEVGPGVMGMQEFVIPTEVIADRLVSDEYVREGHHHHHH | soluble
MSLATAPPFERIETTGLQTLTPRELDELIESVAAVDNPTPLVDDESFLRRVTLDAIGRVPTEQEWKTFMEDPASNKRAKLIDRLLASEEYGANWANYWSDVFSYRTPSPELTFLSYDTPKHWLAEQLNNGVGWDQVSYQMLTGVGKVADNPAAFYVGYHQADVSRLAGESTRIFLGAQIQCAECHDHPFVDIPQERFHQMAAFFVRTKAELPWNDEGHHHHHH | soluble
MSLATKDPTAVERANLLNMAKLSIKGLIESALSFGRTLDSDYPPLQQFFVVMEHCLKHGLKGRKSFLSYNKTIWGPLELVEKLYPEAEEIGASVRDLPGLKTPLGRARAWLRLALMQKKMADYLRCLIIQRELLSEFYEYHALMMEEEGAVIVGLLVGLNVIDANLCVKGEDLDSQVGVIDFSMYLKNEEGHHHHHH | soluble
MSLATKFPKNFKLATATAAYQIEGAKDLNGRGFSTWDAIRLEPGRILDNSDPDLSCDGLLKYKEDVALLAEIGVTNYRFSISWSRILPDGTLSTINEEGIKFYRDLCLLLKENNIEPVVTLFHFDMPLAIYDNGTAWLNRENCEHFEKFADLCFQKFGDLVKTWITYNEINCQAWGSIVKVEGEFWLCPERPEIENHKQAPYFGAANMLLTHAKIYRNYDQNYKPTQHGILGITNGGRFCFPATDSQEDIEACNRARDWLFNFTIEPILSGSGDFPVLMRERMPFIPKFSEEEKEIIKGSTDFIGINYYLSFLVRAPKDGEKASSQSQHDGGYVFVEGKWDKICGETWIRYAPDGLLKILRYVKEKYANTPVFITENGCMDIVGQDQEDAFHDQHRIDYISGHLEAVAKALDEGCNVIGYTVWTLMDNFEWDDGFELKFGLCEVDFESPDKTRTMKKSAYFYKEFIKEFKDFHGI | not soluble
MSLCAPNTGRFLLTGTPLPMLSYRHSFHAGNHADVLKHTVQSLIIESLKEKDKPFLYLDTHAGAGRYQLGSEHAERTGEYLEGIARIWQQDDLPAELEAYINVVKHFNRSGQLRYYPGSPLIARQLLREQDSLQLTELHPSDYPLLRSEFQKDSRARVEKADGFQQLKAKLPPVSRRGLILIDPPYEMKTDYQAVVSGIAEGYKRFATGTYALWYPVVLRQQIKRMIHDLEATGIRKILQIELAVLPDSDRRGMTASGMIVINPPWKLEQQMNNVLPWLHSKLVPAGTGHATVSWIVPEEGHHHHHH | soluble
MSLCQLLGMNCNTPTDIMFSFEGFRRRGGITDHHADGFGIGFFEGKGVRLFHDDKPSVNSPVADLVRAYQIKSENVIAHIRKASQGQTSLANTHPFMREMWGGYWLFAHNGHLIDFFPEQGEFFHPVGTTDSERAFCHILNRLRTRFAARPDDDTLFDAIAGLTHEIRKFGLFNFMLSDGIALFAHASTLLHYIVRQAPFGKARLLDDDVMVDFAEVTTPSDRVAVIATLPLTRDESWSQLAVDELVMFREGNIVRHDRPENPVYMSAEEGLEIARAEGGSHHHHHH | soluble
MSLCRVLAVKPSSYYDWMNRNISDQQIHRNQCELLVKAAHTETRERYGVDRLQAHLRQQGHYVSQYMIRSIKEEYGIKCRRHKRFKMTTNSNHNKLVYLNVLDQQFDAKHPNESWVSDITYIWTNEGWLYLAGVKDLYTKELVGYAINKRMTADLVCRALNMAIKNKRPRQGLIVHSDRGSQYCSHAYHKIIEQHQFTGSMSAKGNCFDNAPIESFWGVLKNELVYHQDYKTRFEAISDITQYIELEYNEERLAKHCFAATQDKSCARSGAREGHHHHHH | soluble
MSLDAKLRYKAKKIKIVFFDIDDTLRNSKTGFIPTTIPTVFKQLREKGILTGIASGRGIFGVVPEIRDLKPDFFVTLNGAYIEDKKGQVIYQHQIEKSDVEEYISWAKQEGIEYGLVGSHDAKLSTRTDMMSEAINPIYPDLDVDPGFHEKEDIYQMWTFEDKGDDLHLPDSLSDKLRMVRWHQHSSDIVPISGSKATGVEKVVEHLGLKPEKVMVFGDGLNDLELFDYAGISVAMGISHDKIKEKADYITKTLEEDGIFDALEVFGMVEKELHFPQVDIETVEGPLATIKTNHGDLRIKLFPEHAPKTVANFVSLSKDGYYDGVIFHRIIKDFMIQGGDPTGTGMGGESIYGESFEDEFSEELYNIRGALSMANAGPNTNGSQFFIVQNQHLPYSKKEITRGGWPEPIAEIYANQGGTPHLDRRHTVFGQLADEASYAVLDVIAAVETGAMDKPVEDVVIETIEIEDEGHHHHHH | soluble
MSLDDRRLIAEVEARRADLVALTQDLVRIPTLNPPGRNYRALCDMLAARLAPQFEVELVRAHGAPGDSETYPRWNLIARRQGARDGDCVHFNSHHDVVEVGHGWTRDPFGAEVEGDRLYGRGACDMKGGLAASVIAAEAFLAVCPDFAGSIEISATADEESGGFGGVAYLARQGRFAHVQHVLIPEPLHKDRICLGHRGVWWAEVETQGRIAHGSMPFLGDSAIRHMGALLAEIEERLYPLLATRTTAMPVTPEGARQSTLNINSIHGGEPEPEPGYTGLPAPCVADRCRIVIDRRFLIEEDLDEVKAELRALAERLAEARPGFAFEIRDLFEVRPTLTDRDAPVVRSTAAAIERVLARQAEYVVSPGTYDQKHIDRIGKLKNCIAYGPGLLHLAHQPDEWVGIADMVDSAKVMALVLADLLAPEEGHHHHHH | soluble
MSLDISKKSLLTPAEAAKLLHVAPTTIRHWAQIGRLPFISTPGGHRRFDRNDILSLMSTPKINVKNDFSILIIEDDKEFADMLTQFLENLFPYAKIKIAYNPFDAGDLLHTVKPDVVMLDLMMVGMDGFSICHRIKSTPATANIIVIAMTGALTDDNVSRIVALGAETCFGKPLNFTLLEKTIKQLVEQKKATSEGHHHHHH | soluble
MSLDIVSHQKIRRFEAGTFQEIESSVATEYPLTIYVNDQELVTIVCTPEYLEDLVVGFLTSEGIVRGPRDINSVDIIEATGHAKVSANFVNKFNAKYRGKRYITSCCGKSRENFYFQSDASLVNVKQNGNLQLTTDMIFRLMEKFEQNSATFHQTGGVHNAALCSSAEIIYSRMDIGRHNALDKIYGRALQDGTSTEDKAIIFSGRISSEILVKTAKLGCGIILSRSAPTELAINMAEELNITTVGFIRGDRLNVYSGFERITEGHHHHHH | soluble
MSLDKHLLVKRTLGCVCAATLMGAALATHHDSLNTVKAEEKTVQVQKGLPSIDSLHYLSENSKKEFKEELSKAGQESQKVKEILAKAQQADKQAQELAKMKIPEKIPMKPLHGPLYGGYFRTWHDKTSDPTEKDKVNSMGELPKEVDLAFIFHDWTKDYSLFWKELATKHVPKLNKQGTRVIRTIPWRFLAGGDNSGIAEDTSKYPNTPEGNKALAKAIVDEYVYKYNLDGLDVDVEHDSIPKVDKKEDTAGVERSIQVFEEIGKLIGPKGVDKSRLFIMDSTYMADKNPLIERGAPYINLLLVQVYGSQGEKGGWEPVSNRPEKTMEERWQGYSKYIRPEQYMIGFSFYEENAQEGNLWYDINSRKDEDKANGINTDITGTRAERYARWQPKTGGVKGGIFSYAIDRDGVAHEGHHHHHH | soluble
MSLDKPRLQFSIREQVQQLLGGLAGLKNYQVPSKETIADNAYLKQMGVALDVLTKEVEKLKSDDGVSAEAMGDYLYRQVQWVNNIVPTQMDLNRLFATMNTAGIQLEQADILKAKLFKHIHTDKAQYDAMWVACEHLENYFERNVRKVFPNADWYHIEPEHLASFDAERFAAKDETSEALSGLSIAELASQVKASSIPDNTEQEKFETYDLDVETVYCRPIIKFPLLLIHAYRVYLALNDHNDIEPRLHSDRLLEIFDPLINGDEQSVKLFIETLWQVRYQFDRWVVKWVERDDATDAQLGLTYQSRSKSNDTYYINRTQKELTDIVLLQSVRNFTGERSAQYWLTPFLSGLIRSSIKQDSVALELLENIDNKMSLSVDTQKEASFALAEGIEPNCQSWQSQSTYFAKSLGTSFEHYWFQKLEYLIWKKMKASESSLPSEELNKFKKYRITSKNSVEHVHPQNDEYNSRLDCETLNSFGNLVLLSPGENSSYSNQDVDKKRIDFERKSHFDALKLREIFGVKGQGLWGKQQIDNHLEDMMAVFAQHYKEGHHHHHH | soluble
MSLDKPVIQIHTDNSSLIFRVADNGRLYQSYLGKKLNHEADISHLPQGTEAYITHGMEDYFEPAIHILHNDGNPSLLLKYVSHETKAVSQGVNETIITLGDDKYPVTVKLHYVTYPAEDIIKTYTEISHKEKKPVVLHQYASSMLHLNRAKYYLTEFSGDWAHEANISDQPLEFGKKVLDTKLGARANMFTPPFFQLSLDQLATENCGEVLVGTLGWTGNFRFTFEVDNKNELRIISGINPYASEYYLPAGVVFRTPDFYFTYSANGKGKASRNFHDWARRYQLKDGDETRMTLLNNWEATYFDFNEEKLIGLIGDAAGLGVDMFLLDDGWFANKYPRSSDHQGLGDWDETADKLPNGIGRLVEEATKKGIKFGLWIEPEMVNPKSELYEKHKDWVIHLPNRDEYYFRNQLVLDLSNPKVQDFVFGVVDDLMTKYPGIAFFKWDCNSPITNIYSSYLKEKQSHLYIDYVRGLYNVLERIKTKYPDLPMMLCSGGSGRIDYETLRYFTEFWPSDNTDPIERLFIQWGYSQLFPAKTLCAHVTTWNHDASIKFRTDVAMMGKLGFDIKLSDLNDNEKKFCRDAVTNYNHLKPVVLEGDMYRLVSPYSGNHTSTQYVGKDKKGAVVFAFDIYSRYGEKLLPVRLQGLDAGRQYRVKEINLMPGTNSEGHHHHHH | not soluble
